Read-outs that look alike come from different tables or passages of the source.
Legend:
[1] = target: calreticulin (hamster (endogenous in CHO)) (UniProt Q8K3H7); assay: co-IP
[2] = target: calreticulin (hamster (endogenous in CHO)) (UniProt Q8K3H7); assay: co-IP; remark: listed apart in the source

UniProt Q8K3H7, sequence (Q8K3H7 18-417): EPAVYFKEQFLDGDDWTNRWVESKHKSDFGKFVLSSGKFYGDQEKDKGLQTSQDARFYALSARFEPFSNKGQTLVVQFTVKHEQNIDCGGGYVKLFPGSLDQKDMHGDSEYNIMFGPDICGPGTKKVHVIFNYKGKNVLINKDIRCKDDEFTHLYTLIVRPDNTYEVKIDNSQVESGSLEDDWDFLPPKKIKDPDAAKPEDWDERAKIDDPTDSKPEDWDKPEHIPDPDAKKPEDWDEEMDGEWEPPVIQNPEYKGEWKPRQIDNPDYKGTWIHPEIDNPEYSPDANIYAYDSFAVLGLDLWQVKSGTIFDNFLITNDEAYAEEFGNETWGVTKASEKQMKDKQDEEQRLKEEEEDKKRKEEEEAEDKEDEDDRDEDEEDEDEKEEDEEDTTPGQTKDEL

influenza hemagglutinin (HA) wild type, transiently expressed in MI8-5 CHO cells (from UniProt P03437 17-566) (natural protein)
percent bound [1]: 16% | percent bound [2]: 70%
